# Measurements taken from the domain aggregation screens of Martell et al. (2025).
# Assay: soluble fraction after stress (log2 fold change); higher = more stays soluble; pooled small domains, quantitative proteomics
# Details: stress: 75 degC
# 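Further: 20 min heating vs room temperature control held 20 min.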
row,Sequence,soluble fraction (log2)
1,HMLPGKEIPLPEFLREAFARNEPALENFQNLAPSYRRQYILWITSAKTPETVQKRISESIGLLKENRKLGM,-0.616
2,HMLPGLGPIERAQFMLQAIPGISPTRSAALIDKFGSIAGIAQASIKDIQTIEGIGKKTATTLYEVLNAG,-0.39
3,HMLPISGDDRDALDMAALILKQYDSLPILKEFANVVTKLQTVLDGVVSNSIEARRQMIQFEE,0.0649
4,HMLPITPGQKYKFVVKSAEEAAAIIRDKLGEMAQVISVRQVEGEGLARFLKSPKLEIIAQVPVA,-0.35
5,HMLPLGSNEYETAVIKHLASGVQDADEIQRLTGIDQTSLNTALTMLELAGTIRPLGNNHWTL,0.459
6,HMLPLHFIEIVSLKKIDTLTKRKELINYAFSKNEKTYIYKLAFKKKSELDNLYKEINLFNEIINIDIRHS,-0.577
7,HMLPLPRFASLDSSEANLRAGPGKDYPILWVYQRKGLPVEIIQEFDTWRRIRDRDGTVGWVQQNLL,-0.351
8,HMLPNIKSEMEILGDNAKARLEAAELWSKKYLSNEAYDTMSKLATTADGVKAIEEIMNITKS,0.0754
9,HMLPSELLAQQRIVVQPGHNLWRIARATYGRGARYTVIYQANREQIADPNRIFPGQVFALPAA,-0.102
10,HMLPSMENWLGELSFWQTPWWERRDFSTFDNIAQSKEELDEFMSRDDNGAILERMQDPINTIEAE,-0.285
11,HMLQGKVSFFNDEKGYGFIKDNNSKDSYFVHINKVEGEIAEGDKVTFELEKGPKGLVAANVKR,0.0967
12,HMLQIGDEEFIENIVKQVIDENQKAVDDYKKGKEKVMAFLIGQVMKKTKGKVNSEIVEKTIKKL,-0.211
13,HMLQKEVHQQIQQALRALPYHQRTAIVLYYYEGMSVKEIAQATGSMQGTVQSRLFFARKKLRPILESILKK,-1.15
14,HMLQQNRAVEAEQLARKGLSYAQSNIQQAALWRLVAEATEQQGKVDAALNAKNKAMQLEMAG,0.248
15,HMLRTLSTSEFAEAIGISESSARRLADSGDLRIRRTKGGHRKIPAEEAIRYAREIQATVVRPDLLGLST,-0.0139
16,HMLRVVSTRQAFDIVRGWADAHPQDPEHNKTLDELEELAKKEVWDDWSRTNEIAERLNALLVSIGANVRTA,-0.961
17,HMLSDEEKMAALNEQARQRGFTISPGVLPYLITHYQRDMHSLSMILDALDRYSLQTKRTITLPLLHDLLQQ,-1.04
18,HMLSKEFRFFTYLLESYAQHKNTTAGAVLKTLDEKGLTDFVYKMYDLYHVEAIENAYMDLDSLIATGKPA,-3.64
19,HMLSKGDRVSWDTPQGRTQGEVVEKKTKDFEHDGQKFTASDDDPAFIVKSEKSGAEAAHKGSALNK,-0.000228
20,HMLSLGIMEADMLKTGKHTISGISKATPEQRQKIDSDIEELKKKYPEKNITSKVENDNLIVESGVTAP,0.029
21,HMLSNKIEQLRKEKGYTFAKLSELSGISTGRLSDLATGKRNNPTMDTLIKLADALDVTLDELVGR,-0.26
22,HMLSNYIGMTLGEAKRNLGQGVNITVNGPNNDNAEVTGQDPTSGSSFDKSKDTITLTT,0.148
23,HMLSPAQSLLLRTAARRPDGRVIPPDTLRGGARVKVLTSLLQRGWIEPVDGGHVLTDAGYAAIG,-0.819
24,HMLSTNDYNENKNKLIKDFEIKFIIKHLKLNKGNVAATARSINFHPVSLRQKIAKLGIDVDEVMAG,-2.59
25,HMLSTQEYIKKNIENGSWKVGEKIPSENNLTEILGVSRASIRVAIQQFIALDVLNSIHGKGTFVKTNNIMG,0.112
26,HMLTALTDREEEILVLLAHNLSNKEIAKRLNLSVNTVRNHTSHIYEKLNVTSRRKAITLAQSLHLLPP,-1.48

row,Sequence,soluble fraction (log2)
1,HMLTAPMPGIVRQVNVDTGQKVRKGQPLMVLEAMKMEHQIIAPQAGKIEAIHYNEGDRVEMGSVLISIF,-1.17
2,HMLTAPMPGIVTEILVKEGQRVRSGQPLMILEAMKMEHQVTAPKSGQIEKIYFSEGEKVDMGSDLLSIS,0.5
3,HMLTEEVEISLMDMTKPTQPATIKTTATIQKGATTVMPKQIKMPEGYEFYGNYKMDQPFELTMTFVVKKI,-1.17
4,HMLTGESDNVEKSINKLGTENLALADQTNMGFKGTFINSGHGMAIVVKTGMQTELGKIASMIQIA,0.218
5,HMLTGISALKPTEAFPDEIFYEIFEIEDNIERTQYIESLRNTARQLKRVTEFNNLYKSFVLDYAQRQKQ,-1.93
6,HMLTKAEEQVMDYLWKLEKAFVKDILDEFPEPKPAYTTVSTMVRILEKKGMVGYTAYGKNHQYYPL,-1.97
7,HMLTKSELVFDTLKKRIIDGELEPGTELVISRISEEFNVSTIPVREAIKTLASEGLVEMEPHKSAKVAE,-0.0052
8,HMLTKSVLGNQIKVLRLEKGLSQEEFGAPVDLSRSAVSQIESGQMYPSLESIGKIVKYYSTSWDNLVG,-0.846
9,HMLTLDEKRRLQIMRVQVALTSLGLYNGRVDGVLNAETKLGLEFFQDLKGLPKSGTMTTPTLNALGVPA,-2.43
10,HMLTLSGPEHAVVRALWPEPELDFDVLIRKTGLPSAQLMTLAMQLEMKKIIRRLPGRRLALMDDIRR,-3.98
11,HMLTRSTVNVETGTAAIGLGKLYGVYDMSRKGLKYSFSVDSDAMTKVMEMLLPLGIKSLTVEPPS,-1.55
12,HMLTTADLMMVHANSNKAIDYIVTDDNTKLTVDEPVTAKWITTADSIYRAVAYYNKVGDGKAQIVSVGN,-0.0103
13,HMLTYPEHVRLRMIELRKTRSLSQSEFGTYLGLSYQTISSLELGRHEWSLAHIQTALLRFELPPNYF,-4.27
14,HMLVATFGPTTGWEGREIIWDVDRFILVGHGAVPAAGVLDYDRRGQLIWAQPELRAWVVEVDRWETG,-2.22
15,HMLVMTDNVIKAINDLLNYEAAAGIKKKQRYTAYQIYKELSEQGVYHGSRRRMEEVVSKLRVERNQI,-2.79
16,HMLVPWKSANLFKLVEPNFRLAERKIPMLPSADREKLQEIMSDMKDAIVDNDKMALMKLDEELTDFLFDFV,-1.49
17,HMLVSPLDEIPGIGRNRKKTLLNHFGSAKTIEGASLEDLKKVDGISELIAKKIYNYFHLNKNF,-0.85
18,HMLWTDTKYVTVPDFVGKEPKEIESSYLYNIEYHGEGTKVISQQPAAFSRTIEGGTVRLYLG,-0.0387
19,HMLYGRRFQVEGLNLERYLRAAADSGIPLKGARRFGRTLTGVAAEEHMAALEALARQGGWLFTPLEAVGAN,-0.948
20,HMLYKNIAKKLRFRINSDEFAIGDVLPTERQLMEEYQASRVSIRKAIDELVAIDLIEKKQGSGTYIKQKEV,-1.89
21,HMMESLGIRLKRLRKDKGLTQVELGKLSGVTGVTIGYWEKDLNEPGSKALSKLAQALGTTESYLLYGVS,-1.21
22,HMMNNKEIGTRIAVLRKGMGDSQAKLAERLDVSPQAVSKWETGQSLPDIGNLLKLSWLFRTSINHILEGS,-2.18
23,HMNADAPWSPFSPGFTGPMNRPVIGLVTKADLANPQRISLVESWLVQAGAQKVFVTSALENTGVDEMFIFL,-0.152
24,HMNADLDIQNVNGNTPLWEAVMRYRGDGFFIEQLLKNGANPDIKNNYGVSPKSLARTIANYDVRRFFN,-0.281
25,HMNADSLIGENIRISERVSNMDQTGMAVVHGQEWTVRTRNDNEIIEPGEEAKILAISGVKLIVEK,-0.136
26,HMNAESLIGDRAVVTVAIERNKRGRVDVTGQDWAATTRDGEEIKVGQEVLVVGISGVALIVEER,-1.1

row,Sequence,soluble fraction (log2)
1,HMNAIYKFVLGMIGKRSGVVTTLPSKKQVEFQANMLAEKFMQNGIDPNALKSPEQVKNVLANIDQ,-1.13
2,HMNALVAKYKQGVTEEQQQGQGIIIIKRVVVRDQEAWVYEKKIFDWGGVSYFRDKQRITASTFNQETAL,-2.79
3,HMNAQLTTQEAADLLNVSRPHLVKLLEDGELPFLRTGKHRRVRLADLLQFKNAREQASVQAMDELSRQAQ,-0.103
4,HMNARSTSYSDFIARVDKDEVASVRLDGETVTYQAADGTTYTTVKPESDPIAERLIAKGIEVNVVRQ,-0.348
5,HMNASITVPDVRNLTVKQASEQLLASGFTPIPYAATKDGVGNDIVYAQDPPPSVLARSGDQITITYNPA,0.0994
6,HMNASTVTLENFEGAKYDDVYGKYDYQFSVTYEQTDKYESGVIISQKPEAGTKIIKGSQVSLVVAT,0.115
7,HMNASVIADLFRQTGASVMIHGHTHRPDIHALEANGDAAFRAVLGAWHTEGSMIRVTQDDVTLIAFP,0.0461
8,HMNATLEQLTQREREIAVLMAEGLTNAQIGSRLNVSMASVKAHLSHIFTKLGVDNRVSAAMMVL,-0.868
9,HMNATPDMERYWASSAAEGRALEPLYAVSRGDGGEPLWWSPSRAQAERMAREEGGPLTVDRIDPP,0.113
10,HMNAVYAEERRAYILAALEKRGTVHSYELAEQMGVSRETIRRDIMELSNRGLLVKTHGGAIST,-1.45
11,HMNAYEVLIPNIYIGQRVDQTLASLFPQFSRSRLQNWLARGNLLIDGEIIKPKTKVLGGEQIIILDT,-1.72
12,HMNDAEEKAEAIEGVKNFMANMEKTDIDFKSKESVLLEQVEEIRKNYPVAQWPVIVKQLYNNIGRL,-0.0997
13,HMNDIDKFVAALVDQDTMAGTNRAFDENDIQTMKNMSSIEDVKQYAVANGLSSGKVNNALISAGL,0.234
14,HMNDIQIILQEAVARLPKKQQLVFNMKYFDHLKYQEISEILGTSVGGLKASYFQAVKKIENYIINKH,-2.27
15,HMNDRLFQILYLLLEKGTMTAPELSRALEVSVRTIYRDIDALSLAGVPVYATQGKNGGVSLLPNY,-2.46
16,HMNDTLQEYFEALERLKSNNPINVPKNTKINNDSVALEAGRKRGSIKKSREIFAELIEAINNAS,-0.303
17,HMNDVEAIDDALKDLHKVSPDLAALVEMKFFGGMTEPEISEILGVSERTVRREWEKARAALLVLLE,-1.63
18,HMNDVHELPYSSFIEMVERGHVISVTVKHINIEFESTKNENYRTIAPQAMTPPYLELLLKNKDSVKVTFLP,-1.98
19,HMNDVLVGAIPESASGSRLDKVMPSVFPPYSRSQLQVWLKQGRILMGNGIPSPRLIVSGGEVLSLVVPELP,-1.02
20,HMNEDFSEIIAAVKKFAVDNLSLSTLSDEELEEQIKTITDNMIGNRYVSIKNRVDIAQQVFSSIR,-0.291
21,HMNEMEFAQRLRQFRKAKNLTQQELADRLGVSNKSVSRWESGSYPDVGTLVALARALGVTVDELLDPKA,-0.00291
22,HMNEMEWVAKLIDQLPERERMILQLREIEQYEFDQIASLMEIPEGTVRVYLSRIRKKIKKQFIEIQSH,0.0404
23,HMNENFPYRLKEMVVVQSRTWPGINKPGGVGQVMKINPEAGTVNVKYVLGGSEKNIELKYVTSNDLNSK,-0.489
24,HMNENYNLSKREKEVLDLLVNGKSYKVIATELAISYETVHSHIKKIYHKLHVSSIGEAVSKTIKQKIL,-3.11
25,HMNEPITIALREAEEAANKILNEGVHSVELSPQNGYVRRLQHELIARYGLTSASRGSDPSRRVSVGAN,-0.295
